Side chains are listed from the residue outwards. * marks the point of attachment. Biotin = O=C1N[C@H]2[C@H](CS[C@H]2CCCCC(=O)*)N1; cysteamine‑PEG/Lys copolymer = not defined here; PEG/Lys copolymer = not defined here

Results on four substances are retold here after patent US6617306B2, “Carrier for in vivo delivery of a therapeutic agent” (priority 1998, dated 2003).

Series [1] is described as follows: Release of peptide from PEG/Lys carrier by reductive cleavage of the disulfide linkage with glutathione. The class given is physicochemical. The settings on record: for half-time of release of peptide from carrier: 3 mM glutathione in PBS (pH 7.4), room temperature, cysteamine thiol linker. On the procedure: The disulfide linked conjugate, PEG-cysteamine-N-acetyl-Phe-Arg-Arg-Arg-Cys-NH2 (SEQ ID NO:9) was added to a solution of reduced glutathione (3 mM in PBS) to a final peptide concentration of 0.3 mM, and then incubated under N2 at room temperature. A sample was taken at each time point, acidified by adding an aliquot of 5% TFA and applied to a G-75 column in 0.1% TFA (7 ml bed volume) to separate PEG-conjugated peptide from free peptide. Appropriate fractions in the high-molecular-weight region were pooled, and the extent of peptide derivatization at each time point was determined by amino acid analysis. For measuring the release of radiolabeled peptide, each time point aliquot was acidified to pH 3.5 with sulfuric acid. The PEG-conjugated peptide and the free peptide were then separated using ultrafiltration on “CENTRICON-10”. To ensure complete separation, the retentate was diluted and ultrafiltered two more times. Radioactivity in the retentate and combined filtrate was quantitated by scintillation counting.
Release of the peptide, N-acetyl-Phe-Arg-Arg-Arg-Cys-NH2 (SEQ ID NO:9), by reductive cleavage of its disulfide linkage to a carrier of the present invention comprising a PEG/Lys copolymer was evaluated using 3 mM glutathione in PBS (pH 7.4) at room temperature. At each time point, an aliquot was withdrawn and acidified to halt the disulfide interchange reaction. Released peptide was removed from PEG/Lys-peptide conjugate by gel filtration chromatography, and the ratio of PEG (i.e. Lys residues) to peptide (i.e. Phe or Arg residues) was determined by amino acid analysis.
Release kinetics were also studied using the disulfide-linked radiolabeled peptides, N-acetyl-Arg-Lys-Lys-Arg-Arg-Gln-Arg-Arg-Arg-Cys-NH2 (SEQ ID NO:10) and N-acetyl-Arg-Lys-Lys-Arg-Arg-Gln-Arg-Arg-Arg-Lys-(biotin)-Cys-NH2 (SEQ ID NO:3). Released peptide was removed from PEG/Lys-peptide conjugate by ultrafiltration.
Analysis of the release rate of the radiolabeled peptide, N-acetyl-Arg-Lys-Lys-Arg-Arg-Gln-Arg-Arg-Arg-Lys-(biotin)-Cys-NH2 (SEQ ID NO:3) gave a half-time of about 40 min in the presence of 30 mM glutathione (FIG. 6). Since the disulfide cleavage rate is proportional to glutathione concentration^8, the sterically hindered linker has a release rate about 100 times slower than does a carrier of the present invention in which the thiol compound is cysteamine. Thus, the release rate can be readily controlled by selection of a thiol compound having functional groups, wherein the thiol compound is conjugated to the polymer, and conjugated via a disulfide bond to a therapeutic agent.

The test system of a further series is Tat binding to TAR RNA. The series can be described thus: TAR-CAT / Tat plasmid transfected Jurkat cells, CAT protein by immunoassay. The class given is cell-based, HIV-1. The settings on record: inhibitor added at 18 h, CAT measured at 42 h. On the procedure: FIG. 7 is a graph of the comparison of the inhibition of protein expression in a Jurkat cell line transfected with a TAR-CAT (TAR-Chloramphenicol Acetyl Transferase) plasmid and a Tat-protein plasmid. In this experiment, one group of cells was administered a Tat inhibitory biotinylated polypeptide derivative having a sequence of N-acetyl-Arg-Lys-Lys-Arg-Arg-Gln-Arg-Arg-Arg-Lys-(biotin)-Cys-NH2 (SEQ ID NO:3), and another group of cells was administered the same Tat inhibitory biotinylated peptide derivative conjugated to a carrier of the present invention via a disulfide bond between the sulfur atom of the thiol group of the thiol compound, and the thiol group of the Cys residue located between biotin and the amino group of the Tat inhibitory biotinylated polypeptide derivative of SEQ ID NO:3. […] Cysteamine was the thiol compound conjugated to the polymer. Conjugation of cysteamine to the polymer involved the carboxylic acid group of the lysine incorporated into the copolymer, which was available for reaction. If the polypeptide was successful in inhibiting Tat binding to TAR, CAT […]. […]
Initially, a Jurkat cell line was stably transfected with a TAR-CAT plasmid. […] At t=42 hours, the cells were harvested and CAT protein was measured by immunoassay. […]

For “PEG-1-amino-2-methyl-2-propanethiol-SEQ ID NO:3: radiolabeled SEQ ID NO:3 peptide disulfide-linked to PEG/Lys derivative of sterically hindered 1-amino-2-methyl-2-propanethiol (Ac-RKKRRQRRRK(Biotin)C-NH2; not fully specified (residue 11); printed as N-acetyl-Arg-Lys-Lys-Arg-Arg-Gln-Arg-Arg-Arg-Lys-(biotin)-Cys-NH2; also: acetyl group tritium-labelled, Cys11 disulfide-linked to PEG/Lys carrier bearing 1-amino-2-methyl-2-propanethiol)”, the “half-time of release of radiolabeled peptide from carrier” value in series [1] (30 mM glutathione in PBS, sterically hindered linker 1-amino-2-methyl-2-propanethiol) is recorded as “about 40 min”. Moreover, in series [1] (cleavage rate taken as proportional to glutathione concentration), the “release rate, times slower than carrier with cysteamine” value is “about 100 times”.
As to “PEG-cysteamine-SEQ ID NO:10: radiolabeled SEQ ID NO:10 peptide disulfide-linked to PEG/Lys copolymer through cysteamine (Ac-RKKRRQRRRC-NH2; not fully specified (residue 10); printed as N-acetyl-Arg-Lys-Lys-Arg-Arg-Gln-Arg-Arg-Arg-Cys-NH2; also: radiolabel)”, the “half-time of release of peptide from carrier” value in series [1] is given as “about 3 minutes”.
On the same count and under the same terms, the same measure for “PEG-cysteamine-N-acetyl-Phe-Arg-Arg-Arg-Cys-NH2 (Ac-FRRRC(cysteamine‑PEG/Lys copolymer)-NH2; reading uncertain; also: Cys disulfide-linked to PEG/Lys cysteamine carrier, printed as PEG-cysteamine-N-acetyl-Phe-Arg-Arg-Arg-Cys-NH2) [PEG-cysteamine-SEQ ID NO:9]”: “about 3 minutes”.
Consider “PEG-cysteamine-SEQ ID NO:3: SEQ ID NO:3 peptide disulfide-linked via its Cys to the cysteamine-PEG carrier (PEG/lysine copolymer, about 27,000 D) (Ac-RKKRRQRRRKC([cysteamine (disulfide)-PEG/Lys copolymer])-NH2; reading uncertain; also: Lys(biotin), position not given here)”, for which, in the series on Tat binding to TAR RNA, the “increase in potency relative to biotinylated Tat-peptide inhibitor administered alone” value was “about 5 fold”. Also, in series [1], the “half-time of release of peptide from carrier” value is listed as “about 3 minutes”.
